B1: library; numbered along this chain (parent)
chain: MATDAALRRLLRLHRTEIAVAVDSAFPLLHALADHDVVPEDKFQETLHLKEKEGCPQAFHALLSWLLTQDSTAILDFWRVLFKDYNLERYGRLQPILDSFPKDVDLSQPRKGRKPPAVPKALVPPPRLPTKRKASEEARAAAPAALTPRGTASPGSQLKAKPPKKPESSAEQQRLPLGNGIQTMSASVQRAVAMSSGDVPGARGAVEGILIQQVFESGGSKKCIQVGGEFYTPSKFEDSGSGKNKARSSSGPKPLVRAKGAQGAAPGGGEARLGQQGSVPAPLALPSDPQLHQKNEDECAVCRDGGELICCDGCPRAFHLACLSPPLREIPSGTWRCSSCLQATVQEVQPRAEEPRPQEPPVETPLPPGLRSAGEEVRGPPGEPLAGMDTTLVYKHLPAPPSAAPLPGLDSSALHPLLCVGPEGQQNLAPGARCGVCGDGTDVLRCTHCAAAFHWRCHFPAGTSRPGTGLRCRSCSGDVTPAPVEGVLAPSPARLAPGPAKDDTASHEPALHRDDLESLLSEHTFDGILQWAIQSMARPAAPFPS

Variants of: B1
Assay: AIRE transcriptional activation functional score (insulin promoter-GFP; nonsense median 0, synonymous median 1) (normalised score); higher = higher AIRE activity (more reporter activation)
Conditions: with insulin promoter-GFP reporter in HEK293
Method in brief: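 Codon-optimized AIRE NNN-codon libraries (three regions) were integrated by Bxb1 recombinase into Flp-In T-REx HEK293 landing-pad cells carrying an insulin core promoter-GFP reporter. Integrants (mCherry+, BFP−) sorted at day 7 were expanded 7 days; top 10% GFP and unselected integrant populations were tile-sequenced. Functional score is select versus non-select variant enrichment, wild-type subtracted. Variants needed 10 counts per million in non-select; scores were rescaled to nonsense median 0 and synonymous median 1, then averaged over biological replicates.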

AIRE transcriptional activation functional score: each site, then its substitutions
L341: V 0.917 | C 1.24
S339: I 0.884 | Y 1.09 | Q 1.16 | N 0.771 | T 1.12 | F 0.807 | M 0.1 | L 0.775 | K 0.757 | D 0.853 | P 1.13 | A 1.13 | R 1.11 | V 0.99 | E 0.838 | G 0.951 | W 0.962 | C 0.985 | H 1.27
S332: Q 0.542 | A 0.774 | H 0.932 | F 1.34 | R 1.04 | M -0.16 | G 1.09 | Y 1.13 | P 0.628 | C 0.951 | T 1.23 | D 0.652 | N 1.56 | I 0.887 | K 0.518 | L 1.17 | W 1.41 | E 0.387 | V 1.3
Q349: I 1.05 | P 0.847 | L 1.1 | M 0.852 | H 0.951 | E 1.04 | C 1.1 | G 1.14 | A 0.994 | R 0.95 | N 0.61 | F 0.896 | K 1.06 | D 0.985
C337: F 0.845 | P 1.47 | R 1.12 | L 1.16 | H 1.85 | E 1.73 | T 1.42 | A 1.51 | I 0.888 | V 1.13 | W 0.733 | D 1.68 | Y 1.07 | K 1.28 | Q 1.5 | S 1.33 | M 0.956 | G 1.5 | N 1.53
E347: V 0.892 | K 1.11 | P 1.14 | Y 1.43 | T 1.26 | M 1.06 | A 1 | G 1.17 | Q 0.943 | S 1.12 | F 1.28 | L 1.16 | D 1.21 | N 0.719 | W 1.24 | I 1.15 | C 1.15 | H 1.32 | R 1.23
R336: F 1.13 | A 1.02 | Y 0.141 | V 0.812 | Q 0.346 | N 1.03 | G 1.33 | S 1.04 | K 1.67 | P 1.38 | D 1.73 | L 0.658 | I 0.734 | T 0.895 | W 0.655 | H 0.786 | C 1.2 | E 0.646 | M 0.49
A343: Y 1.09 | H 1.02 | R 0.816 | D 1.18 | W 1.93 | V 1.03 | G 0.94 | T 1.13 | I 1.36 | M 1.59 | K 0.609 | C 0.944 | F 1.38 | S 0.938 | L 1.38 | N 0.601 | Q 0.485 | E 0.95 | P 0.957
T344: M 1.37 | G 1.16 | R 1.08 | E 0.714 | D 0.882 | K 1.16 | W 1.1 | H 1.29 | N 0.983 | C 1.26 | V 0.896 | A 0.851 | F 1.26 | Y 0.912 | I 0.748 | P 1.07 | Q 1.12 | S 1.06 | L 0.939
S338: R 1.2 | V 0.911 | W 0.904 | N 1.3 | L 1.01 | K 1.08 | Y 1.11 | Q 0.916 | D 1.08 | A 0.683 | G 1.11 | H 1.25 | F 0.948 | M 1.32 | P 0.56 | T 1.21 | E 0.862 | I 1.18

Reference: the supplement of paper PMC12667976
